Values of other authors as cited in PMC2892843.

Target: NgR1 (UniProt Q9BZR6)
Sequence of UniProt Q9BZR6 (Q9BZR6 27-447): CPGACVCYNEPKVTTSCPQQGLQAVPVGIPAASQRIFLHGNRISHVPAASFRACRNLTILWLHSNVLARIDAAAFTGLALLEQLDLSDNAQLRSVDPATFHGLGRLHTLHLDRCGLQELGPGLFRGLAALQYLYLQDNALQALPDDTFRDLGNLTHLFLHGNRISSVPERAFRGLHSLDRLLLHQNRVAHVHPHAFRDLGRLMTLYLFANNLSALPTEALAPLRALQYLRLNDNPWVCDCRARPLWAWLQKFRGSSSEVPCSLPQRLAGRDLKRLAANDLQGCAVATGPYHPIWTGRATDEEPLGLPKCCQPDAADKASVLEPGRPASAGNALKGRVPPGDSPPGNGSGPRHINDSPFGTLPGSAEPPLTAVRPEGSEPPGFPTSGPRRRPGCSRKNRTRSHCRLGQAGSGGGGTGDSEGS

Substance: MAG (from UniProt P20916)
- Kd: 10 nM
